Assay results from PMC4429956.

How the values were obtained:
Assay in all cases: SPR
PI5P = settings: parent: est. 460; read off a plot
PI(4,5)P2 = settings: parent: est. 240; read off a plot
PI3P = settings: parent: est. 370; read off a plot
[1] = target: histone H3 peptide trimethylated at lysine 4; settings: parent: est. 490; read off a plot

Row | response (PI5P) [RU] | response (PI(4,5)P2) [RU] | response (PI3P) [RU] | response [1] [RU] | Substance
1 | 400 | 120 | 270 | – | GST-TAF3 PHD finger, wild type D890; W891
2 | – | – | – | 570 | GST-TAF3 PHD finger, wild type K922; K923; K925; K926; R927; K928
